Measurements reported in patent US20170088603A1.

These substances were tested against Human FcRn with human β2M on MDCK II clone 15 cells (human) (UniProt P55899) (assay: cell-based or functional assay).

Sequence of IgG4 Fc IgM tp L309 (P01861 other isoform, or with tags, fused parts or gaps limits assumed): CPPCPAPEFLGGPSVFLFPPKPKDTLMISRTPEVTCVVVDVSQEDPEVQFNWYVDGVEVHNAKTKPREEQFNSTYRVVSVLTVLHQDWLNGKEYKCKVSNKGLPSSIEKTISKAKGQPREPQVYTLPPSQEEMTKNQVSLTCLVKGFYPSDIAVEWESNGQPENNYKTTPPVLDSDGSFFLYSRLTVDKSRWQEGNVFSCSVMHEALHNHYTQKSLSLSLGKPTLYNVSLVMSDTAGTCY

| Substance | Blockade of IgG intracellular uptake EC50 [µg/mL] | Blockade of IgG recycling EC50 [µg/mL] | Blockade of IgG recycling (% inhibition at 100 µg/ml) |
| --- | --- | --- | --- |
| IgG1 Fc IgM tp L309 (from UniProt P0DOX5 228-449) (Fc fusion) | 4.4 | 0.33 | – |
| IgG1 IgM tail-piece, H310L (Fc fusion) | – | – | 45 |
| IgG1 IgM tail-piece, V308F (Fc fusion) | 0.12 | 0.073 | – |
| IgG4 IgM tail-piece, T307A (Fc fusion) | 0.5 | – | – |
| IgG4 IgM tail-piece, V308P (Fc fusion) | 0.51 | 0.42 | – |

Second part, the substance after the results:

| Blockade of IgG intracellular uptake EC50 [µg/mL] | Blockade of IgG recycling EC50 [µg/mL] | Blockade of IgG recycling (% inhibition at 100 µg/ml) | Substance |
| --- | --- | --- | --- |
| 0.54 | 0.35 | – | IgG1 IgM tail-piece, T307A (Fc fusion) |
| 0.34 | 0.55 | – | IgG1 IgM tail-piece, V308P (Fc fusion) |
| 5.9 | 1 | – | IgG4 Fc IgM tp L309 (from UniProt P01861 106-325) (Fc fusion) |
| 0.42 | 0.56 | – | IgG4 IgM tail-piece, V308F (Fc fusion) |

Each substance was assayed against Human FcRn with human β2M on MDCK II clone 15 cells (human) (UniProt P55899) (assay: not given).

| EC50, inhibition of FcRn mediated IgG recycling (cell lysates), percentage inhibition relative to the positive control; blocked ligand biotinylated human IgG [upper panel (cell lysates] [µg/mL] | Substance |
| --- | --- |
| 0.37 | IgG1 Fc IgM tp L309 (from UniProt P0DOX5 228-449) (Fc fusion) |
